Laboratory results: doi:10.1101/2025.06.27.661840 (bioRxiv, 2025)
Like-named read-outs stand apart in the source and are kept apart here.

B1: major capsid protein (MCP; ORF40) (natural protein, UniProt P09245 1-1396, looked up)
chain: MTTVSCPANVITTTESDRIAGLFNIPAGIIPTGNVLSTIEVCAHRCIFDFFKQIRSDDNSLYSAQFDILLGTYCNTLNFVRFLELGLSVACICTKFPELAYVRDGVIQFEVQQPMIARDGPHPVDQPVHNYMVKRIHKRSLSAAFAIASEALSLLSNTYVDGTEIDSSLRIRAIQQMARNLRTVLDSFERGTADQLLGVLLEKAPPLSLLSPINKFQPEGHLNRVARAALLSDLKRRVCADMFFMTRHAREPRLISAYLSDMVSCTQPSVMVSRITHTNTRGRQVDGVLVTTATLKRQLLQGILQIDDTAADVPVTYGEMVLQGTNLVTALVMGKAVRGMDDVARHLLDITDPNTLNIPSIPPQSNSDSTTAGLPVNARVPADLVIVGDKLVFLEALERRVYQATRVAYPLIGNIDITFIMPMGVFQANSMDRYTRHAGDFSTVSEQDPRQFPPQGIFFYNKDGILTQLTLRDAMGTICHSSLLDVEATLVALRQQHLDRQCYFGVYVAEGTEDTLDVQMGRFMETWADMMPHHPHWVNEHLTILQFIAPSNPRLRFELNPAFDFFVAPGDVDLPGPQRPPEAMPTVNATLRIINGNIPVPLCPISFRDCRGTQLGLGRHTMTPATIKAVKDTFEDRAYPTIFYMLEAVIHGNERNFCALLRLLTQCIRGYWEQSHRVAFVNNFHMLMYITTYLGNGELPEVCINIYRDLLQHVRALRQTITDFTIQGEGHNGETSEALNNILTDDTFIAPILWDCDALIYRDEAARDRLPAIRVSGRNGYQALHFVDMAGHNFQRRDNVLIHGRPVRGDTGQGIPITPHHDREWGILSKIYYYIVIPAFSRGSCCTMGVRYDRLYPALQAVIVPEIPADEEAPTTPEDPRHPLHAHQLVPNSLNVYFHNAHLTVDGDALLTLQELMGDMAERTTAILVSSAPDAGAATATTRNMRIYDGALYHGLIMMAYQAYDETIATGTFFYPVPVNPLFACPEHLASLRGMTNARRVLAKMVPPIPPFLGANHHATIRQPVAYHVTHSKSDFNTLTYSLLGGYFKFTPISLTHQLRTGFHPGIAFTVVRQDRFATEQLLYAERASESYFVGQIQVHHHDAIGGVNFTLTQPRAHVDLGVGYTAVCATAALRCPLTDMGNTAQNLFFSRGGVPMLHDNVTESLRRITASGGRLNPTEPLPIFGGLRPATSAGIARGQASVCEFVAMPVSTDLQYFRTACNPRGRASGMLYMGDRDADIEAIMFDHTQSDVAYTDRATLNPWASQKHSYGDRLYNGTYNLTGASPIYSPCFKFFTPAEVNTNCNTLDRLLMEAKAVASQSSTDTEYQFKRPPGSTEMTQDPCGLFQEAYPPLCSSDAAMLRTAHAGETGADEVHLAQYLIRDASPLRGCLPLPR
B2: VZV portal protein (pORF54) (natural protein, UniProt P09302 1-769, looked up)
chain: MAEITSLFNNSSGSEEKRIASSVSIDQGLNGSNPNDQYKNMFDIYWNEYAPDIGFCTFPEEDGWMLIHPTTQSMLFRKILAGDFGYTDGQGIYSAVRSTETVIRQVQATVLMNALDATRYEDLAADWEHHIQQCNLHAGALAERYGLCGESEAVRLAHQVFETWRQTLQSSLLEFLRGITGCLYTSGLNGRVGFAKYVDWIACVGIVPVVRKVRSEQNGTPAPLNTYMGQAAELSQMLKVADATLARGAAVVTSLVECMQNVAIMDYDRTRLYYNYNRRLIMAKDDVTGMKGECLVVWPPVVCGEGVVFDSPLQRLSGEVLACYALREHARVCQVLNTAPLRVLIGRRNEDDRSHSTRAVDRIMGENDTTRAGSAASRLVKLIVNLKNMRHVGDITETVRSYLEETGNHILEGSGSVDTSQPGFGKANQSFNGGAMSGTTNVQSAFKTSVVNSINGMLEGYVNNLFKTIEGLKDVNSDLTERLQFKEGELKRLREERVKIKPSKGSHITMAEETRIADLNHEVIDLTGIIGDDAYIANSFQSRYIPPYGDDIKRLSELWKQELVRCFKLHRVNNNQGQEISVSYSNASISLLVAPYFSFILRATRLGFLVTQSEVHRSEEELCQAIFKKARTESYLSQIRILYEMQVRAEVIKRGPRRTPSPSWGLPDPTEDDERIPEPNKINNQYMHVGYKNLSHFMKGHPPERLRVHKVNAADSTLLDKIRANRRRGDGRWDVRNKYTQHFRLQRNDRQLTNTSRRGVGCERRDRRS
B3: capsid triplex protein 2 (TRX2; ORF41) (natural protein, UniProt P09291 1-316, looked up)
chain: MAMPFEIEVLLPGELSPAETSALQKCEGKIITFSTLRHRASLVDIALSSYYINGAPPDTLSLLEAYRMRFAAVITRVIPGKLLAHAIGVGTPTPGLFIQNTSPVDLCNGDYICLLPPVFGSADSIRLDSVGLEIVFPLTIPQTLMREIIAKVVARAVERTAAGAQILPHEVLRGADVICYNGRRYELETNLQHRDGSDAAIRTLVLNLMFSINEGCLLLLALIPTLLVQGAHDGYVNLLIQTANCVRETGQLINIPPMPRIQDGHRRFPIYETISSWISTSSRLGDTLGTRAILRVCVFDGPSTVHPGDRTAVIQV
B4: capsid vertex-specific component 2 (CVC2; ORF34) (natural protein, UniProt P09287 1-579, looked up)
chain: MTARYGFGSISFPNKCGIFLSTTKNFIAPNFPIHYWTAPAFELRGRMNPDLEKNTLTLKNAAAVAALDNLRGETITLPTEIDRRLKPLEEQLTRMAKVLDSLETAAAEAEEADAQSEECTRTEIIRNESIHPEVQIAKNDAPLQYDTNFQVDFITLVYLGRARGNNSPGIVFGPWYRTLQERLVLDRPVAARGVDCKDGRISRTFMNTTVTCLQSAGRMYVGDRAYSAFECAVLCLYLMYRTSNSVHEPQVSSFGNLIEHLPEYTETFVNYMTTHENKNSYQFCYDRLPRDQFHARGGRYDQGALTSHSVMDALIRLQVLPPAPGQFNPGVNDIIDRNHTAYVDKIQQAAAAYLERAQNVFLMEDQTLLRLTIDTITALLLLRRLLWNGNVYGDKLKNNFQLGLIVSEATGTPTNNVILRGATGFDGKFKSGNNNFQFLCERYIAPLYTLNRTTELTEMFPGLVALCLDAHTQLSRGSLGRTVIDISSGQYQDRLISLIALELEHRRQNVTSLPIAAVVSIHDSVMLQYERGLGMLMHQPRVRAALEESRRLAQFNVNSDYDLLYFVCLGVIPQFASTP

Legend:
Experiment in all cases: cryo-EM structure
[1] = biological target: large tegument protein VP1/2 (ORF22) (Varicella-zoster virus (parental Oka strain, recombinant pOka-TK-RFP)) (UniProt P09278)
cryo-EM structure [2] = biological target: the molecule itself
cryo-EM structure [3] = biological target: the molecule itself; remark: listed apart in the source

Molecule | stoichiometry N (cryo-EM structure [2]) | further results
large tegument protein VP1/2 (ORF22), P09278 1-2763 | – | stoichiometry N [1]: 2
B1 | 6 | –
B2 | – | stoichiometry N (cryo-EM structure [3]): 12
B3 | 2 | –
B4 | 2 | –
